Experimental data from article PMC2824606.

Target: yHsp90-Y24F, bacterially expressed and purified (N-terminally His6-tagged, pRSETA) (Saccharomyces cerevisiae) (UniProt P02829)
Test: ITC

Kd: 1800 nM
Substance: Aha1 used for the in vitro binding constants (from UniProt Q12449 1-350) (natural protein)
